Measurements published in article PMC10883267 (2023).

What was measured:
Assay in all cases: pulldown with E. coli lysates, quantified
[1] = molecular target: eIF4E-binding motif of human eIF4EBP1 (50-83) (UniProt Q13541); conditions: n = 3 independent experiments; parent: est. 0.90; read off a plot
[2] = molecular target: eIF4E-binding motif of human eIF4ENIF1 (27-63) (UniProt Q9NRA8); conditions: n = 3 independent experiments; parent: est. 2.5; read off a plot
[3] = molecular target: eIF4E-binding motif of human eIF4G (608-647) (UniProt Q04637); conditions: n = 3 independent experiments; parent: est. 0.30; read off a plot
Sequence of eIF4E-binding motif of human eIF4G (608-647) (Q04637 608-647): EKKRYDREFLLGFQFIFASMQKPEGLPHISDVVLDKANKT

Sequence of mouse eIF4E1B (63-244) (from UniProt Q3UTA9) Dorsal (W101 mutated; new residue not printed) (Q3UTA9 63-244, change not shown): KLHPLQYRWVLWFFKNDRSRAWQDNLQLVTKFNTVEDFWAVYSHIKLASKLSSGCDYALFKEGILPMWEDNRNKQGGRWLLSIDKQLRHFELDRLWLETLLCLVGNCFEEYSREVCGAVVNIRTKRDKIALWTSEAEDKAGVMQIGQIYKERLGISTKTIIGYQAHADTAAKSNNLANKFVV
Sequence of mouse eIF4E1B (63-244) (from UniProt Q3UTA9) Lateral (V91, T92, I107 mutated; new residues not printed) (Q3UTA9 63-244, change not shown): as above
Sequence of eIF4E-binding motif of human eIF4EBP1 (50-83) (Q13541 50-83): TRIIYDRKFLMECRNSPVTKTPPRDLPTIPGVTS
Sequence of eIF4E-binding motif of human eIF4ENIF1 (27-63) (Q9NRA8 27-63): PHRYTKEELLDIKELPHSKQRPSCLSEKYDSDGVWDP

## mouse eIF4E1B (63-244) (from UniProt Q3UTA9) Lateral (V91, T92, I107 mutated; new residues not printed)
[1]
  other: Binding (rel. to Mm eIF4E) (rel. to Mm eIF4E): 0.2
[2]
  other: Binding (rel. to Mm eIF4E) (rel. to Mm eIF4E): 0.9
[3]
  other: Binding (rel. to Mm eIF4E) (rel. to Mm eIF4E): 0.12

## mouse eIF4E1B (63-244) (from UniProt Q3UTA9) Dorsal (W101 mutated; new residue not printed)
[1]
  other: Binding (rel. to Mm eIF4E) (rel. to Mm eIF4E): 0.1
[2]
  other: Binding (rel. to Mm eIF4E) (rel. to Mm eIF4E): 0.15
[3]
  other: Binding (rel. to Mm eIF4E) (rel. to Mm eIF4E): 0.2
